Patent US20060121465A1, “Sgk and nedd used as diagnostic and therapeutic targets” (priority 2002, published 2006)
Residue numbers refer to the chain shown, from its start.

T1: Sglt1 (Homo sapiens, UniProt P13866)
T1 construct: expressed in transfected cells; host or cells: Xenopus laevis oocytes injected with in vitro synthesized cRNA
T1 sequence (P13866 1-664): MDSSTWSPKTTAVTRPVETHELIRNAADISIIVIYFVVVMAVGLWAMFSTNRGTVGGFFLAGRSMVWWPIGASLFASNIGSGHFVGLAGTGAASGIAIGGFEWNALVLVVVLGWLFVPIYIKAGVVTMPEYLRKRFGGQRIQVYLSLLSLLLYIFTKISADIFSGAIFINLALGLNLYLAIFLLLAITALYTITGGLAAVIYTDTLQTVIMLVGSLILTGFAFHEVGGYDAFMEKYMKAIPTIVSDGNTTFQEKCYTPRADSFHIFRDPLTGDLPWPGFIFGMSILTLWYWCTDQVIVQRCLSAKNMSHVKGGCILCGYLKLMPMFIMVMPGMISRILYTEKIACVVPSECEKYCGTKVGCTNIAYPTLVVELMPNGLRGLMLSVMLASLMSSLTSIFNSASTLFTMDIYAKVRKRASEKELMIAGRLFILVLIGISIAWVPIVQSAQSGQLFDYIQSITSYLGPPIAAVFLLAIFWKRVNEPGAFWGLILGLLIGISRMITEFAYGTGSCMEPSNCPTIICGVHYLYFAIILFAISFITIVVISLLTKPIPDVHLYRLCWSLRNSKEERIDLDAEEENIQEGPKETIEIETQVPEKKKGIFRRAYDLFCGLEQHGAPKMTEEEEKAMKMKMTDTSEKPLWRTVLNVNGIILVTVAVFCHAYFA

B1: Sgk2: isoform of Sgk, coexpressed in oocytes (protein, UniProt Q9HBY8 1-367, looked up)
Serine/threonine-protein …: MNSSPAGTPSPQPSRANGNINLGPSANPNAQPTDFDFLKVIGKGNYGKVLLAKRKSDGAFYAVKVLQKKSILKKKEQSHIMAERSVLLKNVRHPFLVGLRYSFQTPEKLYFVLDYVNGGELFFHLQRERRFLEPRARFYAAEVASAIGYLHSLNIIYRDLKPENILLDCQGHVVLTDFGLCKEGVEPEDTTSTFCGTPEYLAPEVLRKEPYDRAVDWWCLGAVLYEMLHGLPPFYSQDVSQMYENILHQPLQIPGGRTVAACDLLQSLLHKDQRQRLGSKADFLEIKNHVFFSPINWDDLYHKRLTPPFNPNVTGPADLKHFDPEFTQEAVSKSIGCTPDTVASSSGASSAFLGFSYAPEDDDILDC
B2: Sgk3: wild-type Sgk isoform 3, expressed from injected cRNA (protein, UniProt Q96BR1 1-496, looked up)
Serine/threonine-protein …: MQRDHTMDYKESCPSVSIPSSDEHREKKKRFTVYKVLVSVGRSEWFVFRRYAEFDKLYNTLKKQFPAMALKIPAKRIFGDNFDPDFIKQRRAGLNEFIQNLVRYPELYNHPDVRAFLQMDSPKHQSDPSEDEDERSSQKLHSTSQNINLGPSGNPHAKPTDFDFLKVIGKGSFGKVLLAKRKLDGKFYAVKVLQKKIVLNRKEQKHIMAERNVLLKNVKHPFLVGLHYSFQTTEKLYFVLDFVNGGELFFHLQRERSFPEHRARFYAAEIASALGYLHSIKIVYRDLKPENILLDSVGHVVLTDFGLCKEGIAISDTTTTFCGTPEYLAPEVIRKQPYDNTVDWWCLGAVLYEMLYGLPPFYCRDVAEMYDNILHKPLSLRPGVSLTAWSILEELLEKDRQNRLGAKEDFLEIQNHPFFESLSWADLVQKKIPPPFNPNVAGPDDIRNFDTAFTEETVPYSVCVSSDYSIVNASVLEADDAFVGFSYAPPSEDLFL
B3: Sgk1: wild-type serum- and glucocorticoid-dependent kinase 1, expressed from injected human sgk1 cRNA (protein, UniProt O00141 1-431, looked up)
Serine/threonine-protein …: MTVKTEAAKGTLTYSRMRGMVAILIAFMKQRRMGLNDFIQKIANNSYACKHPEVQSILKISQPQEPELMNANPSPPPSPSQQINLGPSSNPHAKPSDFHFLKVIGKGSFGKVLLARHKAEEVFYAVKVLQKKAILKKKEEKHIMSERNVLLKNVKHPFLVGLHFSFQTADKLYFVLDYINGGELFYHLQRERCFLEPRARFYAAEIASALGYLHSLNIVYRDLKPENILLDSQGHIVLTDFGLCKENIEHNSTTSTFCGTPEYLAPEVLHKQPYDRTVDWWCLGAVLYEMLYGLPPFYSRNTAEMYDNILNKPLQLKPNITNSARHLLEGLLQKDRTKRLGAKDDFMEIKSHVFFSLINWDDLINKKITPPFNPNVSGPNDLRHFDPEFTEEPVPNSIGKSPDSVLVTASVKEAAEAFLGFSYAPPTDSFL
B4: ^K127NSgk1: inactive Sgk1 mutant, expressed from injected cRNA (protein, UniProt O00141 1-431, looked up, variant K127N)
Serine/threonine-protein …: B3 Serine/threonine-protein … with K127N
B5: ^S422DSgk1: constitutively active Sgk1 mutant (serine 422 to aspartate), expressed from injected cRNA (protein, UniProt O00141 1-431, looked up, variant S422D)
Serine/threonine-protein …: B3 Serine/threonine-protein … with S422D

Target: T1, Sglt1
Test: Two-electrode voltage clamp of glucose-induced currents in Xenopus laevis oocytes expressing Sglt1
Assay type: cell-based
Settings: for stimulation of glucose transport by additional coexpression: further series of experiments (FIG. 5); for effect on currents induced by glucose (in words): oocytes expressing Sglt1
Text: cRNAs encoding wild-type Sgk1 [Waldegger S, Barth P, Raber G, Lang F: Cloning and characterization of a putative human serine/threonine protein kinase transcriptionally modified during anisotonic and isotonic alterations of cell volume. […] Biochem J. 1999; 339: 319-28], wild-type Sgk3 and PKB [Kobayashi T, Deak M, Morrice N, Cohen P. Characterization of the structure and regulation of two novel isoforms of serum- and glucocorticoid-induced protein kinase. Biochem J. 1999; 334: 189-97], consitutively active ^T308D,S473DPKB [Alessi D R, Cohen P. Mechanism of activation and function of protein kinase B. Curr. Opin Genet Dev. 1998; 8: 55-62], wild-type Nedd4-2 [Debonneville C, Flores S Y, Kamynina E, Plant P J, Tauxe C, Thomas M A, Munster C, Chraibi A, Pratt J H, Horisberger J D, Pearce D, Loffing J, Staub O. Phosphorylation of Nedd4-2 by Sgk1 regulates epithelial Na(+) channel cell surface expression. EMBO J. 2001; 20: 7052-7059] and wild-type Sglt1 [Hediger M A, Coady M J, Ikeda T S, Wright E M. Expression cloning and cDNA sequencing of the Na^+/glucose co-transporter. Nature. 1987; 330: 379-381] were synthesized in vitro [Wagner C A, Friedrich B, Setiawan I, Lang F, Bröer S: The use of Xenopus laevis oocytes for the functional characterization of heterologously expressed membrane proteins. Cell Physiol Biochem 2000; 10: 1-12]. Dissection of the Xenopus laevis ovaries, and collection and treatment of the oocytes, have already been described in detail [Wagner C A, Friedrich B, Setiawan I, Lang F, Broer S: The use of Xenopus laevis oocytes for the functional characterization of heterologously expressed membrane proteins. Cell Physiol Biochem 2000; 10: 1-12]. The oocytes were injected with 5 ng of human sglt1, 7.5 ng of human sgk1, ^K127Nsgk1, ^S422Dsgk1, sgk3, PKB or ^T308D,S473DPKB, and/or with 5 ng of Xenopus nedd4-2. Control oocytes were injected with water. Electrophysiological experiments were carried out at room temperature for 3 days after the respective cRNAs had been injected. The currents which were induced by the extracellular administration of 20 mM or 5 mM glucose were measured using a two-electrode voltage clamp [Wagner C A, Friedrich B, Setiawan I, Lang F, Broer S: The use of Xenopus laevis oocytes for the functional characterization of heterologously expressed membrane proteins. Cell Physiol Biochem 2000; 10: 1-12] and taken as a measure of the glucose transport. The data were filtered at 10 Hz and analyzed using a MacLab Digital to Analog Converter and corresponding software (AD Instruments, Castle Hill, Australia). The control bath solution (ND 96) contained 96 mM NaCl, 2 mM KCl, 1.8 mM CaCl2, 1 mM MgCl2 and 5 mM HEPES, pH 7.4. All the substances were used at the stated concentrations. The final solutions were titrated with HCl or NaOH to the stated pH or pH 7.4. The flow rate of the superfusion solution was 20 ml/min and achieved complete change of solution within 10 s.
For the calculations, the data were quoted as arithmetic means±SEM. n is the number of oocytes investigated. All the experiments were carried out in at least three different groups of oocytes. Qualitatively similar data were obtained in all the repeats. The results were tested for significant differences using Student's t test. Only results giving P<0.05 were made use of as being statistically significant.

[1] = coexpressed with Sglt1 and Nedd4-2
[2] = further series of experiments (FIG. 5, procedure as in FIG. 4), coexpressed with Sglt1
[3] = 20 mM glucose, coexpressed with Sglt1, increase vs oocytes expressing Sglt1 on its own
[4] = 20 mM glucose, coexpressed with Sglt1 and Nedd4-2
[5] = 5 mM glucose, coexpressed with Sglt1 and Nedd4-2
[6] = 5 mM glucose, coexpressed with Sglt1 (FIG. 4)

Row | Molecule | stimulation of glucose transport by additional coexpression [1] | glucose-induced current increased by coexpression [2] | glucose-induced current increased by coexpression [3] [%] | glucose-induced current higher than in oocytes expressing Sglt1 on its own [4] [%] | effect on currents induced by glucose (in words) (20 mM glucose, figure legends) | other results
1 | PKB: wild-type protein kinase B, expressed from injected cRNA | 107±20% | 101±18% |  |  |  | 
2 | ^T308D,S473DPKB: constitutively active protein kinase B mutant, expressed from injected cRNA |  |  | 117.4±15.8 | 106.5±18.2 | stimulated the currents and reversed the effect of Nedd4-2 | 
3 | B1 | no significant effect | no statistically significant effect |  |  |  | 
4 | B2 | 114±26% | 117±16% | 123.6±15.0 | 112.4±19.4 | stimulated the currents and reversed the effect of Nedd4-2 | 
5 | B3 |  |  | 81.3±19.0 | 34.8±11.8 | stimulated the currents and reversed the effect of Nedd4-2 | glucose-induced current more than in oocytes injected with Sglt1 and Nedd4-2 mRNA [5]: 126±23%; glucose-induced current more than in oocytes only injected with Sglt1 [5]: 61±21%; glucose-induced current (5 mM glucose, coexpressed with Sglt1 and Nedd4-2 (FIG. 4)): 60.5±9.9 nA
6 | B4 |  |  |  |  |  | change of substrate-induced current (20 mM glucose, coexpressed with Sglt1, signed change vs Sglt1 alone): −2.0±5.3%; glucose-induced current lower than in oocytes expressing Sglt1 on its own [4]: 54.9±9.7%
7 | B5 | 48±11% | 55±12% | 72.4±9.1 | 59.2±19.8 | stimulated the currents and reversed the effect of Nedd4-2 | glucose-induced current (Iglc) [6]: 65.4±10.6 nA; increase of Iglc by coexpression [6]: 77±23%; effect on currents induced by glucose (in words) (5 mmol glucose, FIG. 4 legend): significantly increased
